B1: TNFRII.Ig (TNFRII IgG fusion protein) (Fc fusion, human, UniProt P20333 23-257, looked up)
chain: LPAQVAFTPYAPEPGSTCRLREYYDQTAQMCCSKCSPGQHAKVFCTKTSDTVCDSCEDSTYTQLWNWVPECLSCGSRCSSDQVETQACTREQNRICTCRPGWYCALSKQEGCRLCAPLRKCRPGFGVARPGTETSDVVCKPCAPGTFSNTTSSTDICRPHQICNVVAIPGNASMDAVCTSTSPTRSMAPGAVHLPQPVSTRSQHTQPTPEPSTAPSTSFLLPMGPSPPAEGSTGD
modifications: labeled with SULFO-TAG NHS-ester as the detecting copy in the competitive blocking ELISA
notes: TNF receptor II (TNFRSF1B), human, fused to Ig; detected with anti-human Fc); also called TNFRII.Fc
B2: human LT-α3 (soluble lymphotoxin-α homotrimer) (ligand, UniProt P01374 35-205, looked up)
chain: LPGVGLTPSAAQTARQHPKMHLAHSTLKPAAHLIGDPSKQNSLLWRANTDRAFLQDGFSLSNNSLLVPTSGIYFVYSQVVFSGKAYSPKATSSPLYLAHEVQLFSSQYPFHVPLLSSQKMVYPGLQEPWLHSMYHGAAFQLTQGDQLSTHTDGIPHLVLSPSTVFFGAFAL
modifications: labeled with biotin in the competitive blocking ELISA only
notes: lymphotoxin-alpha, human, recombinant soluble homotrimer; also called recombinant LT-α3; soluble LT-α

Tests used:
[1] = target: human LT-α1β2 (lymphotoxin-α/lymphotoxin-β heterotrimer) (human) (UniProt P01374); experiment: ELISA; wells coated overnight with 0.5-1 µg/ml human LT-α1β2 or LT-α3, blocked with PBS with 5 mg/ml BSA; LT-βR or TNFRII IgG fusion proteins added; detected with HRP goat F(ab')2 anti-human Fc and tetramethylbenzidine; EC50 by 4-parameter fit
[2] = target: human LT-α1β2 (lymphotoxin-α/lymphotoxin-β heterotrimer) (human) (UniProt P01374); experiment: ELISA; competitive blocking ELISA (Meso Scale Discovery read-out): test molecule serially diluted, incubated 2 hr with biotinylated LT-α3 or LT-α1β2, captured on streptavidin plates 30 min, then SULFO-TAG TNFRII.Ig or LT-βR.Ig added 30 min
[3] = target: B2; experiment: ELISA; wells coated overnight with 0.5-1 µg/ml human LT-α1β2 or LT-α3, blocked with PBS with 5 mg/ml BSA; LT-βR or TNFRII IgG fusion proteins added; detected with HRP goat F(ab')2 anti-human Fc and tetramethylbenzidine; EC50 by 4-parameter fit; settings: both partners purified
[4] = target: B2; experiment: ELISA; competitive blocking ELISA (Meso Scale Discovery read-out): test molecule serially diluted, incubated 2 hr with biotinylated LT-α3 or LT-α1β2, captured on streptavidin plates 30 min, then SULFO-TAG TNFRII.Ig or LT-βR.Ig added 30 min; settings: both partners purified
[5] = target: B1; experiment: as above; settings: both partners purified

Human LT-βR.Ig (LT-βR IgG fusion protein) (from UniProt P36941 31-227) (Fc fusion)
EC50 [1]: 0.048 nM | IC50 [2]: 0.1 nM

B1
EC50 [3]: 0.133 nM | IC50 [4]: 0.83 nM

B2
binding result [5]: binds
